{"source": "patent US20260242735A1", "assay_in_all_cases": "alanine scan, flow cytometry, HEK293-T", "key": {"human CD33 R110A (human)": {"molecular_target": "human CD33 R110A (human) (UniProt P20138)"}, "human CD33 L148A (human)": {"molecular_target": "human CD33 L148A (human) (UniProt P20138)"}, "human CD33 D51A (human)": {"molecular_target": "human CD33 D51A (human) (UniProt P20138)", "sequence (P20138 18-364 D51A limits assumed)": "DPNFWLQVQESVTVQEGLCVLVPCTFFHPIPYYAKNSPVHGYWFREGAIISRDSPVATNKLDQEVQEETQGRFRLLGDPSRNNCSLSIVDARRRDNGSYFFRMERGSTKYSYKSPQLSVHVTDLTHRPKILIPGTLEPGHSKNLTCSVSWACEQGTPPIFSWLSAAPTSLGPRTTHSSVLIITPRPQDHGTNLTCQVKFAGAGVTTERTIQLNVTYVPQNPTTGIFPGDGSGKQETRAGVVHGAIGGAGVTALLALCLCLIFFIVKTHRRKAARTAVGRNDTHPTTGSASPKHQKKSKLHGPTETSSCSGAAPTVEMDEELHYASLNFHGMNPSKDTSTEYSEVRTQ"}, "human CD33 D70A (human)": {"molecular_target": "human CD33 D70A (human) (UniProt P20138)"}, "human CD33 L141A (human)": {"molecular_target": "human CD33 L141A (human) (UniProt P20138)"}, "human CD33 P174A (human)": {"molecular_target": "human CD33 P174A (human) (UniProt P20138)"}, "human CD33 W60A (human)": {"molecular_target": "human CD33 W60A (human) (UniProt P20138)"}, "human CD33 R62A (human)": {"molecular_target": "human CD33 R62A (human) (UniProt P20138)"}, "human CD33 L180A (human)": {"molecular_target": "human CD33 L180A (human) (UniProt P20138)"}, "human CD33 N113A (human)": {"molecular_target": "human CD33 N113A (human) (UniProt P20138)"}, "human CD33 S97A (human)": {"molecular_target": "human CD33 S97A (human) (UniProt P20138)"}, "human CD33 I66A (human)": {"molecular_target": "human CD33 I66A (human) (UniProt P20138)"}, "human CD33 G58A (human)": {"molecular_target": "human CD33 G58A (human) (UniProt P20138)"}, "human CD33 Y59A (human)": {"molecular_target": "human CD33 Y59A (human) (UniProt P20138)"}, "human CD33 V165A (human)": {"molecular_target": "human CD33 V165A (human) (UniProt P20138)"}, "human CD33 D107A (human)": {"molecular_target": "human CD33 D107A (human) (UniProt P20138)"}, "human CD33 P96A (human)": {"molecular_target": "human CD33 P96A (human) (UniProt P20138)", "sequence (P20138 18-364 P96A limits assumed)": "as the sequence (P20138 18-364 D51A limits assumed) above, with A34D, P79A counted along it"}, "human CD33 R109A (human)": {"molecular_target": "human CD33 R109A (human) (UniProt P20138)", "sequence (P20138 18-364 R109A limits assumed)": "as the sequence (P20138 18-364 D51A limits assumed) above, with A34D, R92A counted along it"}, "human CD33 S194A (human)": {"molecular_target": "human CD33 S194A (human) (UniProt P20138)"}, "human CD33 H193A (human)": {"molecular_target": "human CD33 H193A (human) (UniProt P20138)"}, "human CD33 S166A (human)": {"molecular_target": "human CD33 S166A (human) (UniProt P20138)"}, "human CD33 E81A (human)": {"molecular_target": "human CD33 E81A (human) (UniProt P20138)", "sequence (P20138 18-364 E81A limits assumed)": "as the sequence (P20138 18-364 D51A limits assumed) above, with A34D, E64A counted along it"}, "human CD33 G94A (human)": {"molecular_target": "human CD33 G94A (human) (UniProt P20138)"}, "human CD33 L161A (human)": {"molecular_target": "human CD33 L161A (human) (UniProt P20138)", "sequence (P20138 18-364 L161A limits assumed)": "as the sequence (P20138 18-364 D51A limits assumed) above, with A34D, L144A counted along it"}, "human CD33 K130A (human)": {"molecular_target": "human CD33 K130A (human) (UniProt P20138)", "sequence (P20138 18-364 K130A limits assumed)": "as the sequence (P20138 18-364 D51A limits assumed) above, with A34D, K113A counted along it"}, "human CD33 P189A (human)": {"molecular_target": "human CD33 P189A (human) (UniProt P20138)"}, "human CD33 E85A (human)": {"molecular_target": "human CD33 E85A (human) (UniProt P20138)"}, "human CD33 G88A (human)": {"molecular_target": "human CD33 G88A (human) (UniProt P20138)", "sequence (P20138 18-364 G88A limits assumed)": "as the sequence (P20138 18-364 D51A limits assumed) above, with A34D, G71A counted along it"}, "human CD33 Y129A (human)": {"molecular_target": "human CD33 Y129A (human) (UniProt P20138)"}, "human CD33 G114A (human)": {"molecular_target": "human CD33 G114A (human) (UniProt P20138)"}, "human CD33 E63A (human)": {"molecular_target": "human CD33 E63A (human) (UniProt P20138)", "sequence (P20138 18-364 E63A limits assumed)": "as the sequence (P20138 18-364 D51A limits assumed) above, with A34D, E46A counted along it"}, "human CD33 S178A (human)": {"molecular_target": "human CD33 S178A (human) (UniProt P20138)", "sequence (P20138 18-364 S178A limits assumed)": "as the sequence (P20138 18-364 D51A limits assumed) above, with A34D, S161A counted along it"}, "human CD33 T191A (human)": {"molecular_target": "human CD33 T191A (human) (UniProt P20138)"}, "human CD33 P175A (human)": {"molecular_target": "human CD33 P175A (human) (UniProt P20138)", "sequence (P20138 18-364 P175A limits assumed)": "as the sequence (P20138 18-364 D51A limits assumed) above, with A34D, P158A counted along it"}, "human CD33 T173A (human)": {"molecular_target": "human CD33 T173A (human) (UniProt P20138)"}, "human CD33 A65S (human)": {"molecular_target": "human CD33 A65S (human) (UniProt P20138)", "sequence (P20138 18-364 A65S limits assumed)": "as the sequence (P20138 18-364 D51A limits assumed) above, with A34D, A48S counted along it"}, "human CD33 S186A (human)": {"molecular_target": "human CD33 S186A (human) (UniProt P20138)"}, "human CD33 Q171A (human)": {"molecular_target": "human CD33 Q171A (human) (UniProt P20138)", "sequence (P20138 18-364 Q171A limits assumed)": "as the sequence (P20138 18-364 D51A limits assumed) above, with A34D, Q154A counted along it"}, "human CD33 E121A (human)": {"molecular_target": "human CD33 E121A (human) (UniProt P20138)"}, "human CD33 E170A (human)": {"molecular_target": "human CD33 E170A (human) (UniProt P20138)"}, "human CD33 G172A (human)": {"molecular_target": "human CD33 G172A (human) (UniProt P20138)"}, "human CD33 V73A (human)": {"molecular_target": "human CD33 V73A (human) (UniProt P20138)", "sequence (P20138 18-364 V73A limits assumed)": "as the sequence (P20138 18-364 D51A limits assumed) above, with A34D, V56A counted along it"}, "human CD33 S131A (human)": {"molecular_target": "human CD33 S131A (human) (UniProt P20138)"}, "human CD33 L92A (human)": {"molecular_target": "human CD33 L92A (human) (UniProt P20138)"}, "human CD33 P48A (human)": {"molecular_target": "human CD33 P48A (human) (UniProt P20138)", "sequence (P20138 18-364 P48A limits assumed)": "as the sequence (P20138 18-364 D51A limits assumed) above, with P31A, A34D counted along it"}}, "data": [{"substance": "Refmab #7 (WM53) (antibody)", "values": [{"measurement": "Mean % WT Binding", "setting": "human CD33 R110A (human)", "value": 95.9, "unit": "% WT binding"}, {"measurement": "Mean % WT Binding", "setting": "human CD33 L148A (human)", "value": 96.7, "unit": "% WT binding"}, {"measurement": "Mean % WT Binding", "setting": "human CD33 D51A (human)", "value": 9.2, "unit": "% WT binding"}, {"measurement": "Mean % WT Binding", "setting": "human CD33 D70A (human)", "value": 81.2, "unit": "% WT binding"}, {"measurement": "Mean % WT Binding", "setting": "human CD33 L141A (human)", "value": 118, "unit": "% WT binding"}, {"measurement": "Mean % WT Binding", "setting": "human CD33 P174A (human)", "value": 122, "unit": "% WT binding"}, {"measurement": "Mean % WT Binding", "setting": "human CD33 W60A (human)", "value": 2.1, "unit": "% WT binding"}, {"measurement": "Mean % WT Binding", "setting": "human CD33 R62A (human)", "value": 114, "unit": "% WT binding"}, {"measurement": "Mean % WT Binding", "setting": "human CD33 L180A (human)", "value": 105, "unit": "% WT binding"}, {"measurement": "Mean % WT Binding", "setting": "human CD33 N113A (human)", "value": 80, "unit": "% WT binding"}, {"measurement": "Mean % WT Binding", "setting": "human CD33 S97A (human)", "value": 128, "unit": "% WT binding"}, {"measurement": "Mean % WT Binding", "setting": "human CD33 I66A (human)", "value": 117, "unit": "% WT binding"}, {"measurement": "Mean % WT Binding", "setting": "human CD33 G58A (human)", "value": 97.2, "unit": "% WT binding"}, {"measurement": "Mean % WT Binding", "setting": "human CD33 Y59A (human)", "value": 127, "unit": "% WT binding"}, {"measurement": "Mean % WT Binding", "setting": "human CD33 V165A (human)", "value": 118, "unit": "% WT binding"}, {"measurement": "Mean % WT Binding", "setting": "human CD33 D107A (human)", "value": 113, "unit": "% WT binding"}, {"measurement": "Mean % WT Binding", "setting": "human CD33 P96A (human)", "value": 98.7, "unit": "% WT binding"}, {"measurement": "Mean % WT Binding", "setting": "human CD33 R109A (human)", "value": 127, "unit": "% WT binding"}, {"measurement": "Mean % WT Binding", "setting": "human CD33 S194A (human)", "value": 112, "unit": "% WT binding"}, {"measurement": "Mean % WT Binding", "setting": "human CD33 H193A (human)", "value": 107, "unit": "% WT binding"}, {"measurement": "Mean % WT Binding", "setting": "human CD33 S166A (human)", "value": 108, "unit": "% WT binding"}, {"measurement": "Mean % WT Binding", "setting": "human CD33 E81A (human)", "value": 98.4, "unit": "% WT binding"}, {"measurement": "Mean % WT Binding", "setting": "human CD33 G94A (human)", "value": 99.2, "unit": "% WT binding"}, {"measurement": "Mean % WT Binding", "setting": "human CD33 L161A (human)", "value": 120, "unit": "% WT binding"}, {"measurement": "Mean % WT Binding", "setting": "human CD33 K130A (human)", "value": 148, "unit": "% WT binding"}, {"measurement": "Mean % WT Binding", "setting": "human CD33 P189A (human)", "value": 119, "unit": "% WT binding"}, {"measurement": "Mean % WT Binding", "setting": "human CD33 E85A (human)", "value": 126, "unit": "% WT binding"}, {"measurement": "Mean % WT Binding", "setting": "human CD33 G88A (human)", "value": 115, "unit": "% WT binding"}, {"measurement": "Mean % WT Binding", "setting": "human CD33 Y129A (human)", "value": 155, "unit": "% WT binding"}, {"measurement": "Mean % WT Binding", "setting": "human CD33 G114A (human)", "value": 94.6, "unit": "% WT binding"}, {"measurement": "Mean % WT Binding", "setting": "human CD33 E63A (human)", "value": 93, "unit": "% WT binding"}, {"measurement": "Mean % WT Binding", "setting": "human CD33 S178A (human)", "value": 106, "unit": "% WT binding"}, {"measurement": "Mean % WT Binding", "setting": "human CD33 T191A (human)", "value": 116, "unit": "% WT binding"}, {"measurement": "Mean % WT Binding", "setting": "human CD33 P175A (human)", "value": 126, "unit": "% WT binding"}, {"measurement": "Mean % WT Binding", "setting": "human CD33 T173A (human)", "value": 103, "unit": "% WT binding"}, {"measurement": "Mean % WT Binding", "setting": "human CD33 A65S (human)", "value": 117, "unit": "% WT binding"}, {"measurement": "Mean % WT Binding", "setting": "human CD33 S186A (human)", "value": 93.4, "unit": "% WT binding"}, {"measurement": "Mean % WT Binding", "setting": "human CD33 Q171A (human)", "value": 121, "unit": "% WT binding"}, {"measurement": "Mean % WT Binding", "setting": "human CD33 E121A (human)", "value": 94.4, "unit": "% WT binding"}, {"measurement": "Mean % WT Binding", "setting": "human CD33 E170A (human)", "value": 118, "unit": "% WT binding"}, {"measurement": "Mean % WT Binding", "setting": "human CD33 G172A (human)", "value": 92.1, "unit": "% WT binding"}, {"measurement": "Mean % WT Binding", "setting": "human CD33 V73A (human)", "value": 113, "unit": "% WT binding"}, {"measurement": "Mean % WT Binding", "setting": "human CD33 S131A (human)", "value": 114, "unit": "% WT binding"}, {"measurement": "Mean % WT Binding", "setting": "human CD33 L92A (human)", "value": 89.9, "unit": "% WT binding"}, {"measurement": "Mean % WT Binding", "setting": "human CD33 P48A (human)", "value": 42.5, "unit": "% WT binding"}]}]}
